From patent publication US20180037649A1 (OSAKA UNIVERSITY, published 2018)

Experiments:
[1] = molecular target: p85α of S2-CP8 cells (endogenous) (human, UniProt P27986 2-724); test: co-IP with anti-CKAP4 antibody from S2-CP8 cell lysate (control shRNA or Dkk1 shRNA), immunoblot
Experimental: A lysate (Input) of S2-CP8 cells in which control shRNA or Dkk1 shRNA (Dkk1) was stably expressed was prepared. The lysate was immunoprecipitated with an anti-CKAP4 antibody. Subsequently, the cell lysate (Input) and the immunoprecipitates (IP) were subjected to the detection of p85α, p110β, CKAP4 and Dkk1 using an anti-p85α antibody, an anti-p110β antibody, an anti-CKAP4 antibody and an anti-Dkk1 antibody, respectively.

[2] = molecular target: T1, deletion mutant CKAP4-HA ΔLZ (human, UniProt Q07065 1-602); test: co-IP with anti-FLAG antibody from X293T/Dkk1-FLAG cell lysate, immunoblot with anti-HA antibody
T1 construct: not shown: HA tag
T1 sequence: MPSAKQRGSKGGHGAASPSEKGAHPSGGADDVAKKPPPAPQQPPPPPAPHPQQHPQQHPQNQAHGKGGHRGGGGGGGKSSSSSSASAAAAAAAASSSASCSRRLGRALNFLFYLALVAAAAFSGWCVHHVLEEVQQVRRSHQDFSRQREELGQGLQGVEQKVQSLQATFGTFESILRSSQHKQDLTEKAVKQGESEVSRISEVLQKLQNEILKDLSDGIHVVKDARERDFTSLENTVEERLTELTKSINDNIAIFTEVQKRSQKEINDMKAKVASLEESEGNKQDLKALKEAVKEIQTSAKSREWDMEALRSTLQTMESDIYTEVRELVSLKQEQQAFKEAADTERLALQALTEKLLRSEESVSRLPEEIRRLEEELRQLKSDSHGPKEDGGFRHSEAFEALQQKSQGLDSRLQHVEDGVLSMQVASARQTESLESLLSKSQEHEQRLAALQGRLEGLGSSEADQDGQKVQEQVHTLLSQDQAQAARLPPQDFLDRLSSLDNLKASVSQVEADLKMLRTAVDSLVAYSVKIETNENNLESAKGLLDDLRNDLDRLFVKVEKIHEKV
From the text: A lysate (Input) of X293T/Dkk1-FLAG cells in which wild-type CKAP4-HA (WT) or a deletion mutant CKAP4-HA (ΔLZ) was transiently expressed was immunoprecipitated with an anti-FLAG antibody, and then the cell lysate (Input) and the immunoprecipitates (IP) were subjected to the detection of HA and Dkk1 using an anti-HA antibody and an anti-Dkk1 antibody, respectively. The results are shown in the lower right panel in FIG. 2 (e). […] Namely, it was confirmed that a CRD-1 domain located on the N-terminal side of Dkk1 and a leucine zipper domain of CKAP4 were necessary for the binding between Dkk1 and CKAP4.

Sequence of p85α of S2-CP8 cells (endogenous) (P27986 2-724): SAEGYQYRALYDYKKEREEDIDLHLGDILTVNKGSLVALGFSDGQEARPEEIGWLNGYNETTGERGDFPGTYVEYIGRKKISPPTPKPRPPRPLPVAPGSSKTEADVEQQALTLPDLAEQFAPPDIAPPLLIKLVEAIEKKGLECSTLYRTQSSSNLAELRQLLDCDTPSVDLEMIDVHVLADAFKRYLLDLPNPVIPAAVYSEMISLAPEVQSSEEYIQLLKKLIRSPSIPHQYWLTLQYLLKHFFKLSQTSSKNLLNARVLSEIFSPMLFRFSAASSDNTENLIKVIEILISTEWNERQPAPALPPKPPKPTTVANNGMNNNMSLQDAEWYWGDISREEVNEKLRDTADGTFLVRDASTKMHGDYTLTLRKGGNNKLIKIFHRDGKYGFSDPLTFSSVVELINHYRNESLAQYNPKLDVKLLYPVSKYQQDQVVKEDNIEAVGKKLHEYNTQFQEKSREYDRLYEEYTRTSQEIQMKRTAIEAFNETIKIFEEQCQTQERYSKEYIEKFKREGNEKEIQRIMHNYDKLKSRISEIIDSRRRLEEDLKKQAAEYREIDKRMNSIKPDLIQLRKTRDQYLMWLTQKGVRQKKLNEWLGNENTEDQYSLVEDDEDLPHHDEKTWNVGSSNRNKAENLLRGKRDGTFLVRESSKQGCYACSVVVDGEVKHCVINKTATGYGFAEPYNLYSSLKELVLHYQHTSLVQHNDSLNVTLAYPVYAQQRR

B1: CKAP4 of S2-CP8 cells (endogenous) (receptor)
chain: MPSAKQRGSKGGHGAASPSEKGAHPSGGADDVAKKPPPAPQQPPPPPAPHPQQHPQQHPQNQAHGKGGHRGGGGGGGKSSSSSSASAAAAAAAASSSASCSRRLGRALNFLFYLALVAAAAFSGWCVHHVLEEVQQVRRSHQDFSRQREELGQGLQGVEQKVQSLQATFGTFESILRSSQHKQDLTEKAVKQGESEVSRISEVLQKLQNEILKDLSDGIHVVKDARERDFTSLENTVEERLTELTKSINDNIAIFTEVQKRSQKEINDMKAKVASLEESEGNKQDLKALKEAVKEIQTSAKSREWDMEALRSTLQTMESDIYTEVRELVSLKQEQQAFKEAADTERLALQALTEKLLRSEESVSRLPEEIRRLEEELRQLKSDSHGPKEDGGFRHSEAFEALQQKSQGLDSRLQHVEDGVLSMQVASARQTESLESLLSKSQEHEQRLAALQGRLEGLGSSEADQDGLASTVRSLGETQLVLYGDVEELKRSVGELPSTVESLQKVQEQVHTLLSQDQAQAARLPPQDFLDRLSSLDNLKASVSQVEADLKMLRTAVDSLVAYSVKIETNENNLESAKGLLDDLRNDLDRLFVKVEKIHEKV
notes: Used in lysates (IP, immunoblot) and on unfixed cells (staining)
Question: Does B1 bind [1]?
Answer: Result: binds

B2: Dkk1-FLAG (wild-type human Dkk1 tagged with FLAG at the C-terminal) (ligand, UniProt O94907 32-266, looked up)
chain: TLNSVLNSNAIKNLPPPLGGAAGHPGSAVSAAPGILYPGGNKYQTIDNYQPYPCAEDEECGTDEYCASPTRGGDAGVQICLACRKRRKRCMRHAMCCPGNYCKNGICVSSDQNHFRGEIEETITESFGNDHSTLDGYSRRTTLSSKMYHTKGQEGSVCLRSSDCASGLCCARHFWSKICKPVLKEGQVCTKHRRKGSHGLEIFQRCYCGEGLSCRIQKDHHQASNSSRLHTCQRH
notes: Expressed in MDCK or X293T cells; pulled down from cell lysates with an anti-FLAG antibody; also called WT-FLAG; wild-type Dkk1-FLAG (WT); not shown: FLAG tag at the C-terminal
Question: Does B2 bind [2]?
Answer: Result: no binding
